Assay results as given in paper PMC4456606, “A conserved histidine modulates HSPB5 structure to trigger chaperone activity in response to stress-related acidosis” (eLife, 2015).

B4: WT-HSPB5 (full-length HSPB5, alphaB-crystallin) (natural protein, human, UniProt P02511 1-175, looked up)
chain: MDIAIHHPWIRRPFFPFHSPSRLFDQFFGEHLLESDLFPTSTSLSPFYLRPPSFLRAPSWFDTGLSEMRLEKDRFSVNLDVKHFSPEELKVKVLGDVIEVHGKHEERQDEHGFISREFHRKYRIPADVDPLTITSSLSSDGVLTVNGPRKQVSGPERTIPITREEKPAVTAAPKK
notes: HSPB5 (alphaB-crystallin), human, full length; Forms polydisperse oligomers; also called αB-crystallin; source: expressed and purified as described previously (Jehle et al., 2009)
B5: H104K-HSPB5 (full-length HSPB5 with His-104 replaced by Lys) (natural protein, human, UniProt P02511 1-175, looked up)
chain: MDIAIHHPWIRRPFFPFHSPSRLFDQFFGEHLLESDLFPTSTSLSPFYLRPPSFLRAPSWFDTGLSEMRLEKDRFSVNLDVKHFSPEELKVKVLGDVIEVHGKKEERQDEHGFISREFHRKYRIPADVDPLTITSSLSSDGVLTVNGPRKQVSGPERTIPITREEKPAVTAAPKK
notes: HSPB5 (alphaB-crystallin), human, full length, with H104K; source: growth and purification similar to that of wild-type proteins (Jehle et al., 2009)
B7: H104Q-HSPB5 (full-length HSPB5 with His-104 replaced by Gln) (natural protein, human, UniProt P02511 1-175, looked up)
chain: MDIAIHHPWIRRPFFPFHSPSRLFDQFFGEHLLESDLFPTSTSLSPFYLRPPSFLRAPSWFDTGLSEMRLEKDRFSVNLDVKHFSPEELKVKVLGDVIEVHGKQEERQDEHGFISREFHRKYRIPADVDPLTITSSLSSDGVLTVNGPRKQVSGPERTIPITREEKPAVTAAPKK
notes: HSPB5 (alphaB-crystallin), human, full length, with H104Q; source: growth and purification similar to that of wild-type proteins (Jehle et al., 2009)

Tests used:
[1] = biological target: the molecule itself; test: ITC; dilution ITC, 1 mM WT-ACD, dimer to monomers; 37°C, pH 7.5, 50 mM sodium phosphate, 100 mM NaCl
[2] = biological target: the molecule itself; test: ITC; dilution ITC, 1 mM WT-ACD, dimer to monomers; 25°C, pH 6.5, 50 mM sodium phosphate, 100 mM NaCl
[3] = biological target: the molecule itself; test: 15N-CPMG relaxation dispersion NMR; 700 and 200 μM ACD, pH 7.5, 37°C; global fit of dimer interface residues; rate constants worked out with the KD of 36 μM from ITC; dimer to monomers
[4] = biological target: the molecule itself; test: ITC; dilution ITC, 1 mM WT-ACD, dimer to monomers; 25°C, pH 7.5, 50 mM sodium phosphate, 100 mM NaCl
[5] = biological target: the molecule itself; test: 1H-15N HSQC NMR; 200 μM ACD, pH 7.5, 22°C, NMR buffer; populations of dimer and monomer peaks; dimer to monomers
[6] = biological target: the molecule itself; test: SEC-MALS; 40 μM subunits, equilibrated at 37°C for at least 60 min; 50 mM sodium phosphate pH 6.5, 100 mM NaCl, 1 mM DTT; size of the oligomers
[7] = biological target: the molecule itself; test: SEC-MALS; 40 μM subunits, pre-incubated at 37°C for 30 min; 50 mM sodium phosphate pH 7.5, 100 mM NaCl, 1 mM DTT; size of the oligomers
[8] = biological target: B4; test: SEC-MALS; WT- and H104K-HSPB5 incubated together at ratios 1:0, 2:1, 1:1, 1:2, 0:1; mixed oligomers; conditions: both partners purified
[9] = biological target: B5; test: SEC-MALS; HSPB5 (40 μM subunits) pre-incubated with αLac (240 μM in the methods, 120 μM in the legend) at 37°C, pH 7.5, 10 min, then 50 mM DTT for 50 min, filtered and injected; SDS-PAGE of peak fractions; conditions: both partners purified
[10] = biological target: B7; test: as above; conditions: both partners purified

B1: HSPB5-ACD (alpha-crystallin domain of HSPB5, residues 64-152) (domain or fragment, human, UniProt P02511 64-152, looked up)
chain: GLSEMRLEKDRFSVNLDVKHFSPEELKVKVLGDVIEVHGKHEERQDEHGFISREFHRKYRIPADVDPLTITSSLSSDGVLTVNGPRKQV
notes: HSPB5 (alphaB-crystallin), human, alpha-crystallin domain, residues 64-152; 15N- or 13C,15N-labelled for the NMR experiments; also called WT-ACD; WT-HSPB5-ACD; source: expressed and purified as described previously (Jehle et al., 2009)
In the case of B1, the Kd [1] is reported as 36 ± 2 µM, the dH [1] is reported as 9.33 ± 0.527 kcal/mol and the Kd [2] is reported as 30 ± 16 µM. For the same binder, the dH [2] was 3.24 ± 0.432 kcal/mol, the koff [3] was 400 s⁻¹ and the kon [3] was 1.1e+07 M⁻¹ s⁻¹. The Kd [4] was 2 ± 2 µM and the dH [4] was 8.77 ± 3.96 kcal/mol.

B2: H104K-ACD (HSPB5-ACD with His-104 replaced by Lys) (domain or fragment, human, UniProt P02511 64-152, looked up)
chain: GLSEMRLEKDRFSVNLDVKHFSPEELKVKVLGDVIEVHGKKEERQDEHGFISREFHRKYRIPADVDPLTITSSLSSDGVLTVNGPRKQV
notes: HSPB5 (alphaB-crystallin), human, alpha-crystallin domain, residues 64-152, with H104K; source: growth and purification similar to that of wild-type proteins (Jehle et al., 2009)
In the case of B2, the Kd [5] is reported as > 1000 µM.

B3: H104Q-ACD (HSPB5-ACD with His-104 replaced by Gln) (domain or fragment, human, UniProt P02511 64-152, looked up)
chain: GLSEMRLEKDRFSVNLDVKHFSPEELKVKVLGDVIEVHGKQEERQDEHGFISREFHRKYRIPADVDPLTITSSLSSDGVLTVNGPRKQV
notes: HSPB5 (alphaB-crystallin), human, alpha-crystallin domain, residues 64-152, with H104Q; source: growth and purification similar to that of wild-type proteins (Jehle et al., 2009)
B3 gave a Kd [5] of 100 to 500 µM.

For B4, the “stoichiometry N” value [6] was ~36 subunits per oligomer and the “stoichiometry N” value [7] was ~24 subunits.

B5 was tested, and the “stoichiometry N” value [7] was ~41 subunits and the binding result [8] was “binds”.

B6: bovine αLactalbumin (natural protein, UniProt P00711 20-142, looked up)
chain: EQLTKCEVFRELKDLKGYGGVSLPEWVCTTFHTSGYDTQAIVQNNDSTEYGLFQINNKIWCKDDQNPHSSNICNISCDKFLDDDLTDDIMCVKKILDKVGINYWLAHKALCSEKLDQWLCEKL
notes: alpha-lactalbumin, bovine, Sigma L6010; Model client protein; source: bought: Sigma (L6010)
B6: binds [9]; binds [10].

B7: binds [7].
